Experimental data from US20150030596A1 (SAMSUNG ELECTRONICS, published 2015).

Experiments:
[1] = molecular target: T1, EGFR-Fc (#344-ER, R&D Systems) (UniProt P00533 25-645); experiment: SPR (Biacore T100); ME-19 captured on human Fab binder on a CM5 chip, EGFR-Fc as analyte
T1 construct: Bought reagent; also called EGFR (R&D systems); EGFR (#344-ER, R&D Systems); not shown: Fc part of the bought fusion protein; not described
Description: Human Fab binder (GE Healthcare) was immobilized on the surface of CM5 chip (#BR-1005-30, GE) according to the manufacturer's manual. […] 10 mM Glycine-HCl (pH 1.5) solution was added hereto, to regenerate the surface. To determine the affinity, the obtained data were fitted using BIA evaluation software (GE Healthcare, Biacore T100 evaluation software).

[2] = molecular target: T1, EGFR-Fc (#344-ER, R&D Systems); experiment: competitive ELISA: plate coated with EGFR (#344-ER, 0.25 ug/well), 20 ng/ml biotinylated EGF mixed with serially diluted ME-19, streptavidin/HRP detection, OD405
Description: 96-well immunoplate (Nunc) was coated with EGFR (#344-ER, R&D Systems) in the amount of 0.25 μg/well. […] The resulted reacting product was washed with PBS containing 0.05% (w/v) of Tween 20. HRP (Horse radish peroxidase) conjugated […] (#21140, Thermo scientific) was added to the each well and reacted at room temperature for 1 hour.

[3] = molecular target: T1, EGFR-Fc (#344-ER, R&D Systems); experiment: SPR (Biacore T100); ME-28 captured on human Fab binder on a CM5 chip, EGFR-Fc as analyte
Description: The binding affinity of bispecific chimeric protein ME-28 to EGFR was examined using Biacore T100 (GE). Human Fab binder (GE Healthcare) was immobilized on the surface of CM5 chip (#BR-1005-30, GE) according to the manufacturer's manual. About 90˜120 RU of the bispecific chimeric protein ME-28 was captured, and various concentrations of EGFR-Fc (#344-ER, R&D Systems) were added to the captured bispecific chimeric protein. 10 mM Glycine-HCl (pH 1.5) solution was added hereto, to regenerate the surface. To determine the affinity, the obtained data were fitted using BIA evaluation software (GE Healthcare, Biacore T100 evaluation software).

Kd [1]	koff [1]	kon [1]	IC50 (read off the curve) [2]	Kd [3]	koff [3]	kon [3]	Binder
0.35 nM	6.4e-05 s⁻¹	180000 M⁻¹ s⁻¹	~0.5 µg/mL				bispecific chimeric protein ME-19 (L3-1Y-IgG2 heavy chain-(G4S)2-anti-EGFR DARPin-01) (bispecific antibody, The DARPin is fused to the C-terminus of each heavy chain; also called anti-c-Met/anti-EGFR DARPin bispecific chimeric protein) heavy: EVQLVESGGGLVQPGGSLRLSCAASGFTFTDYYMSWVRQAPGKGLEWLGFIRNKANGYTTEYSASVKGRFTISRDNSKNTLYLQMNSLRAEDTAVYYCARDNWFAYWGQGTLVTVSSASTKGPSVFPLAPCSRSTSESTAALGCLVKDYFPEPVTVSWNSGALTSGVHTFPAVLQSSGLYSLSSVVTVPSSNFGTQTYTCNVDHKPSNTKVDKTVERKCCVECPPCPAPPVAGPSVFLFPPKPKDTLMISRTPEVTCVVVDVSHEDPEVQFNWYVDGVEVHNAKTKPREEQFNSTFRVVSVLTVVHQDWLNGKEYKCKVSNKGLPAPIEKTISKTKGQPREPQVYTLPPSREEMTKNQVSLTCLVKGFYPSDIAVEWESNGQPENNYKTTPPMLDSDGSFFLYSKLTVDKSRWQQGNVFSCSVMHEALHNHYTQKSLSLSPGKGGGGSGGGGSDLGKKLLEAARAGQDDEVRILMANGADVNADDTWGWTPLHLAAYQGHLEIVEVLLKNGADVNAYDYIGWTPLHLAADGHLEIVEVLLKNGADVNASDYIGDTPLHLAAHNGHLEIVEVLLKHGADVNAQDKFGKTAFDISIDNGNEDLAEILQ light: DIQMTQSPSSLSASVGDRVTITCKSSQSLLASGNQNNYLAWYQQKPGKAPKMLIIWASTRVSGVPSRFSGSGSGTDFTLTISSLQPEDFATYYCQQSYSRPYTFGQGTKVEIKRTVAAPSVFIFPPSDEQLKSGTASVVCLLNNFYPREAKVQWKVDNALQSGNSQESVTEQDSKDSTYSLSSTLTLSKADYEKHKVYACEVTHQGLSSPVTKSFNRGEC
				< 0.01 nM	< 3.4e-05 s⁻¹	110000 M⁻¹ s⁻¹	bispecific chimeric protein ME-28 (L3-1Y-IgG2 heavy chain-(G4S)2-anti-EGFR DARPin-01-(G4S)2-anti-EGFR DARPin-69) (bispecific antibody, Two DARPins are linked in tandem to each heavy chain C-terminus of the IgG; also called anti-c-Met/anti-EGFR (E01+E69) DARPins bispecific chimeric protein) heavy: EVQLVESGGGLVQPGGSLRLSCAASGFTFTDYYMSWVRQAPGKGLEWLGFIRNKANGYTTEYSASVKGRFTISRDNSKNTLYLQMNSLRAEDTAVYYCARDNWFAYWGQGTLVTVSSASTKGPSVFPLAPCSRSTSESTAALGCLVKDYFPEPVTVSWNSGALTSGVHTFPAVLQSSGLYSLSSVVTVPSSNFGTQTYTCNVDHKPSNTKVDKTVERKCCVECPPCPAPPVAGPSVFLFPPKPKDTLMISRTPEVTCVVVDVSHEDPEVQFNWYVDGVEVHNAKTKPREEQFNSTFRVVSVLTVVHQDWLNGKEYKCKVSNKGLPAPIEKTISKTKGQPREPQVYTLPPSREEMTKNQVSLTCLVKGFYPSDIAVEWESNGQPENNYKTTPPMLDSDGSFFLYSKLTVDKSRWQQGNVFSCSVMHEALHNHYTQKSLSLSPGKGGGGSGGGGSDLGKKLLEAARAGQDDEVRILMANGADVNADDTWGWTPLHLAAYQGHLEIVEVLLKNGADVNAYDYIGWTPLHLAADGHLEIVEVLLKNGADVNASDYIGDTPLHLAAHNGHLEIVEVLLKHGADVNAQDKFGKTAFDISIDNGNEDLAEILQGGGGSGGGGSDLGKKLLEAARAGQDDEVRILMANGADVNADDNAGRTPLHLAANFGHLEIVEVLLKNGADVNAKGHHCNTPLHLAAWAGHLEIVEVLLKYGADVNADDDEGYTPLHLAADIGDLEIVEVLLKYGADVNAWDMYGRTPLHLAASAGHLEIVEVLLKYGADVNAQDKFGKTAFDISIDNGNEDLAEILQ light: DIQMTQSPSSLSASVGDRVTITCKSSQSLLASGNQNNYLAWYQQKPGKAPKMLIIWASTRVSGVPSRFSGSGSGTDFTLTISSLQPEDFATYYCQQSYSRPYTFGQGTKVEIKRTVAAPSVFIFPPSDEQLKSGTASVVCLLNNFYPREAKVQWKVDNALQSGNSQESVTEQDSKDSTYSLSSTLTLSKADYEKHKVYACEVTHQGLSSPVTKSFNRGEC
